Measured values as given in patent EP4617282A1 (Institute Of Pathogen Biology, Chinese Academy Of Medical …, dated 2024).

What was measured:
[1] = biological target: HIV-1NL4-3 Env (envelope glycoprotein of the HIV-1NL4-3 pseudovirus) (HIV-1 (strain NL4-3)); assay: cell-based or functional assay
[2] = biological target: HIV-1JRFL Env (envelope glycoprotein of the HIV-1JRFL pseudovirus) (HIV-1 (strain JRFL)); assay: cell-based or functional assay

Row | Binder | average IC50, inhibition of pseudovirus infection of TZM-bl cells (luciferase) [1] [pM] | average IC50, inhibition of pseudovirus infection of TZM-bl cells (luciferase) [2] [pM] | IC50, inhibition of pseudovirus infection of TZM-bl cells (luciferase) [1] [pM] | fold reduction of antiviral activity as compared to lipopeptide LP-101 [1] [fold] | IC50, inhibition of pseudovirus infection of TZM-bl cells (luciferase) [2] [pM] | fold reduction of antiviral activity as compared to lipopeptide LP-101 [2] [fold]
1 | Ac-YEQKIEELLKKAEEQQKKNEEELKKLEK-NH2 (not fully specified (residue 28)) [lipopeptide LP-98] | 1.07 | 2.58 | – | – | – | –
2 | Ac-EIEELEKKIEELLKKAEEQQKKNEEELKKLEK-NH2 (not fully specified (residue 32)) [lipopeptide LP-101] | 0.46 | 2.26 | – | – | – | –
3 | Ac-WEEWEKKIEELEKKIEELLKKAEEQQKKNEEELKKLEK-NH2 (not fully specified (residue 38)) [lipopeptide LP-104] | – | – | 14.5 | ~32 | 60.2 | ~27
